Ends that are not written are not given here. FAM = carboxyfluorescein (FAM) fluorescent label
B1: L2 peptide (peptide)
peptide: {FAM}-VYYCFQGSHVPFTK
notes: Synthetic 14-mer homologous to the FR3 or FR4 region of the light chain; also called L2 switching peptide; second peptide compound L2
B2: H2 peptide (peptide)
peptide: VYYCAREPTGTGIYFDVWGK
modifications: not fully specified (N-terminus)
notes: Synthetic 20-mer homologous to the FR3 or FR4 region of the heavy chain; The label differs between experiments; also called H2 switching peptide; fourth peptide compound H2
B3: L1 peptide (peptide)
peptide: TYLEWYPQKPGQSPKLLIYK
modifications: not fully specified (N-terminus)
notes: Synthetic 20-mer homologous to the FR2 region of the light chain; The label differs between experiments; also called L1 switching peptide; first peptide compound L1

Key:
[1] = target: T1, Anti-CRP antibody(r); assay: labelled peptide on antibody immobilised on microplate; antigen CRP
T1 construct: also called rabbit IgG (CRP)

[2] = target: T2, anti-Inf-A binding antibody; assay: dissociation of labelled peptide from anti-Inf-A antibody on treatment with Inf-A; fluorescence
T2 construct: also called anti-Inf-A antibody; anti-inf A antibody

[3] = target: T3, Anti-hCG antibody(m); assay: labelled peptide on antibody immobilised on microplate; antigen hCG
T3 construct: also called mouse IgG (hCG)

[4] = target: T4, Anti-HRP antibody(r); assay: fluorescence in solution against HRP concentration (0.3 to 100 µM); peptide on immobilised rabbit anti-HRP antibody
T4 construct: Rabbit IgG, immobilised on a microplate; also called rabbit anti-HRP antibodies; anti-HRP antibody from a rabbit
Description: In this experiment, an anti-HRP antibody from a rabbit immobilized on a microplate was used as the binding antibody and HRP was used as the antigen.

[5] = target: T5, Anti-HBsAg antibody(g); assay: labelled peptide on antibody immobilised on microplate; antigen HBsAg
T5 construct: also called anti-HBsAg antibodies from goats; goat IgG (HBsAg)

[6] = target: T6, anti-Inf-B binding antibody; assay: dissociation of labelled peptide from anti-Inf-B antibody on treatment with Inf-B; fluorescence
T6 construct: also called anti-Inf-B antibody

[7] = target: T4, Anti-HRP antibody(r); assay: labelled peptide on immobilised rabbit anti-HRP antibody, papain cleavage
[8] = target: T4, Anti-HRP antibody(r); assay: labelled peptide on antibody immobilised on microplate; antigen HRP
[9] = target: T7, BSA (UniProt P02769 25-607); assay: labelled peptide on protein immobilised on microplate; fluorescence at bottom
T7 construct: also called bovine serum albumin

[10] = target: protein-A (UniProt P38507 37-477); assay: as above
[11] = target: T8, C-reactive protein (UniProt P02741 19-224); assay: as above
T8 construct: also called CRP
T8 sequence (looked up): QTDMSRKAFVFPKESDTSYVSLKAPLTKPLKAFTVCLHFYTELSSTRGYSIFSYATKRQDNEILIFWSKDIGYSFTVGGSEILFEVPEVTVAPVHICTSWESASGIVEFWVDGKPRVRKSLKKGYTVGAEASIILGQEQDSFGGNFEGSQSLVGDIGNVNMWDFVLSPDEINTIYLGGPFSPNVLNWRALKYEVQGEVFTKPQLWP

[12] = target: T2, anti-Inf-A binding antibody; assay: SPR biosensor, anti-Inf-A antibody immobilised on Au substrate, BSA blocked
Description: Referring to FIG. 17A, anti-Inf-A and anti-Inf-B binding antibodies were immobilized on an Au substrate using an SPR biosensor, and the blank surface of the substrate was blocked with a BSA solution to treat Inf-A and Inf-B.

[13] = target: T6, anti-Inf-B binding antibody; assay: SPR biosensor, anti-Inf-B antibody immobilised on Au substrate, BSA blocked
[14] = target: B2; assay: FRET on microplate: FAM-L1 immobilised, TAMRA-H2 incubated

T7 sequence (P02769 25-607 limits assumed): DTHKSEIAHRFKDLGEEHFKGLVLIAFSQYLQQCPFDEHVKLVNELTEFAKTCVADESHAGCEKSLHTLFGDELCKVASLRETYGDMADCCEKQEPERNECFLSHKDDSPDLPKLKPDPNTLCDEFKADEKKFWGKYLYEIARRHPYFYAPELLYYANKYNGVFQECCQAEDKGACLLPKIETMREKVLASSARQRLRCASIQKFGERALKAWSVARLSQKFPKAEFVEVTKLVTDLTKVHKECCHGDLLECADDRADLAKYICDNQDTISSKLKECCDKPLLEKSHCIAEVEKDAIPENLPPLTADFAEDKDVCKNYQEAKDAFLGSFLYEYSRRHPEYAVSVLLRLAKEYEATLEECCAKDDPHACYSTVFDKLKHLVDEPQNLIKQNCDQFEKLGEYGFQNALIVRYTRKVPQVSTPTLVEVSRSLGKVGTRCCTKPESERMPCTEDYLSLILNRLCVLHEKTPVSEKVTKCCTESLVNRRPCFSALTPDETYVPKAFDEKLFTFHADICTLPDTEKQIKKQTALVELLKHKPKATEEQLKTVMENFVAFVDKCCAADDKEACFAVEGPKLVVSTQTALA

Binder	change (%) of fluorescence at bottom (B) of microplate [1] [%]	change (%) of fluorescence in solution (S) [1] [%]	fluorescence intensity at bottom (B) of microplate after antigen binding [1]	fluorescence intensity at bottom (B) of microplate before antigen binding [1]	fluorescence intensity in solution (S) after antigen binding [1]	fluorescence intensity in solution (S) before antigen binding [1]	relative change in fluorescence signal [2] [%]	change (%) of fluorescence at bottom (B) of microplate [3] [%]	change (%) of fluorescence in solution (S) [3] [%]	fluorescence intensity at bottom (B) of microplate after antigen binding [3]	fluorescence intensity at bottom (B) of microplate before antigen binding [3]	fluorescence intensity in solution (S) after antigen binding [3]	fluorescence intensity in solution (S) before antigen binding [3]	Kd [4] [µM]	change (%) of fluorescence at bottom (B) of microplate [5] [%]	change (%) of fluorescence in solution (S) [5] [%]	fluorescence intensity at bottom (B) of microplate after antigen binding [5]	fluorescence intensity at bottom (B) of microplate before antigen binding [5]	fluorescence intensity in solution (S) after antigen binding [5]	fluorescence intensity in solution (S) before antigen binding [5]	other results
B1	-44.9	883	11200	20400	32200	3270	225	-90.7	456	3070	33200	9400	1690	1.48	-64.8	574	9860	28000	15400	2280	relative change in fluorescence signal [6]: 151%; decrease of fluorescence intensity at the bottom of the microplate after papain treatment [7]: 72.5%; increase of fluorescence intensity in the solution after papain treatment [7]: 2450%; change (%) of fluorescence at bottom (B) of microplate [8]: -74.5%; change (%) of fluorescence in solution (S) [8]: 597%; fluorescence intensity at bottom (B) of microplate after antigen binding [8]: 3210; fluorescence intensity at bottom (B) of microplate before antigen binding [8]: 12600; fluorescence intensity in solution (S) after antigen binding [8]: 16100; fluorescence intensity in solution (S) before antigen binding [8]: 2320; binding result [9]: no binding; binding result [10]: no binding; binding result [11]: no binding
B2	-39.5	677	22200	22200	16300	2100	352	-88.5	416	23300	23300	8540	1650	3.11	-36.1	412	18800	29400	9140	1780	Kd [12]: 37 µM; relative change in fluorescence signal [6]: 199%; Kd [13]: 56 µM; decrease of fluorescence intensity at the bottom of the microplate after papain treatment [7]: 58.7%; increase of fluorescence intensity in the solution after papain treatment [7]: 2360%; change (%) of fluorescence at bottom (B) of microplate [8]: -85.2%; change (%) of fluorescence in solution (S) [8]: 698%; fluorescence intensity at bottom (B) of microplate after antigen binding [8]: 1810; fluorescence intensity at bottom (B) of microplate before antigen binding [8]: 122000; fluorescence intensity in solution (S) after antigen binding [8]: 18100; fluorescence intensity in solution (S) before antigen binding [8]: 2270; binding result [9]: no binding; binding result [10]: no binding; binding result [11]: no binding
B3	-48.6	778	3460	6720	6500	741	176	-61.6	187	1780	4630	3580	1250	3.29	-51.3	638	5390	11100	20500	2780	Kd [12]: 14 µM; binding result [14]: binds; relative change in fluorescence signal [6]: 180%; Kd [13]: 14 µM; decrease of fluorescence intensity at the bottom of the microplate after papain treatment [7]: 84.8%; increase of fluorescence intensity in the solution after papain treatment [7]: 1030%; change (%) of fluorescence at bottom (B) of microplate [8]: -87.3%; change (%) of fluorescence in solution (S) [8]: 357%; fluorescence intensity at bottom (B) of microplate after antigen binding [8]: 1990; fluorescence intensity at bottom (B) of microplate before antigen binding [8]: 15600; fluorescence intensity in solution (S) after antigen binding [8]: 12300; fluorescence intensity in solution (S) before antigen binding [8]: 2690; binding result [9]: no binding; binding result [10]: no binding; binding result [11]: no binding
